Source: patent US20210395344A1 (TWIST BIOSCIENCE, published 2021)
Where two headings read alike, the source gives them in different places.

Columns and labels:
[1] = target: T1, SARS-CoV-2 Spike Glycoprotein S1 (subunit 1) (SARS-CoV-2, UniProt P0DTC2 16-685); test: column Inhibitor IC50 (assay not explained)
T1 construct: also called S1 Monomer; SARS-CoV-2 S1

[2] = target: T1, SARS-CoV-2 Spike Glycoprotein S1 …; test: ELISA binding titration
SARS-CoV-2 S1 RBD = SARS-CoV-2 S1 RBD (SARS-CoV-2, UniProt P0DTC2 319-541)
[3] = target: T1, SARS-CoV-2 Spike Glycoprotein S1 …; test: screening phage ELISA, mean
[4] = target: T1, SARS-CoV-2 Spike Glycoprotein S1 …; test: screening phage ELISA, mean; remark: listed apart in the source
[5] = target: T1, SARS-CoV-2 Spike Glycoprotein S1 …; test: antibody kinetics, sensorgrams with fits; column S1
[6] = target: T1, SARS-CoV-2 Spike Glycoprotein S1 …; test: column Fc/S1 (format not explained)
[7] = target: T2, SARS-CoV-2 S protein trimer (SARS-CoV-2, UniProt P0DTC2 16-1213); test: column Fc/S-T (format not explained)
[8] = target: T2, SARS-CoV-2 S protein trimer; test: column DB/S-T (format not explained)
[9] = target: T1, SARS-CoV-2 Spike Glycoprotein S1 …; test: column DC/S1 (format not explained); clone 1-27
[10] = target: T1, SARS-CoV-2 Spike Glycoprotein S1 …; test: column DC/S1 (format not explained)
[11] = target: T2, SARS-CoV-2 S protein trimer; test: column DC/S-T (format not explained)
[12] = target: T1, SARS-CoV-2 Spike Glycoprotein S1 …

B1: 1-53 (antibody, V domains shown)
VH: EVQLLESGGGLVQPGGSLRLSCAASGFTFSSYTMSWVRQAPGKGLEWVSVISGSGGSTYYADSVKGRFTISRDNSKNTLYLQMNSLRAEDTAVYYCAREGYRDYLWYFDLWGQGTLVTVSS
VL: QSALTQPASVSGSPGQSITISCTGTSTDVGSYNLVSWYQQHPGKAPKLMIYEGTKRPSGVSNRFSGSKSGNTASLTISGLQAEDEADYYCCSYAGSYTSVVFGGGTKLTVL
IC50 [1]: 1.43 µM
EC50 [2]: 0.0103 µM
IC50 (SARS-CoV-2 S1 RBD): 0.0143 µM
ELISA (Avg) [3]: 21.7
ELISA (Avg) [4]: 21.7

B2: 1-12 (antibody, V domains shown)
VH: EVQLLESGGGLVQPGGSLRLSCAASGITFSSYAMSWVRQAPGKGLEWVSGISGSGGSTYYADSVKGRFTISRDNSKNTLYLQMNSLRAEDTAVYYCAKHGSGTIFGVVIAKYYFDYWGQGTLVTVSS
VL: QSALTQPASVSGSPGQSITISCTGTSSDVGHYNLVSWYQQHPGKAPKLMIYEGTKRPSGVSNRFSGSKSGNTASLTISGLQAEDEADYYCCSYAGSSSFVVFGGGTKLTVL
IC50 [1]: 0.033 µM
Kd [5]: 0.0061 µM
EC50 [2]: 0.00215 µM
ELISA (Avg) [3]: 25.7
Kd [6]: 0.0061 µM
Kd [7]: 0.014 µM
ELISA (Avg) [4]: 25.7

B3: 1-2 (antibody, V domains shown)
VH: EVQLLESGGGLVQPGGSLRLSCAASGFTFSSQAMSWVRQAPGKGLEWVSAISGSGGGTYYADSVKGRFTISRDNSKNTLYLQMNSLRAEDTAVYYCAKDRRFGEFDPWGQGTLVTVSS
VL: QSALTQPASVSGSPGQSITISCTGTSSGVGSYNLVSWYQQHPGKAPKLMIYEGIKRPSGVSNRFSGSKSGNTASLTISGLQAEDEADYYCCSYAGSSSFVVFGGGTKLTVL
EC50 [2]: 0.000523 µM
Kd [8]: 0.304 µM
ELISA (Avg) [3]: 24.2
ELISA (Avg) [4]: 24.2

B4: 1-27 (antibody, V domains shown)
VH: EVQLLESGGGLVQPGGSLRLSCAASGFTFSSYAMTWVRQAPGKGLEWVSAISGSGGGTYYADSVKGRFTISRDNSKNTLYLQMNSLRAEDTAVYYCASSSSWQFDYWGQGTLVTVSS
VL: QSALTQPASVSGSPGQSITISCTGTSSYVGHYNLVSWYQQHPGKAPKLMIYEGSRRPSGVSNRFSGSKSGNTASLTISGLQAEDEADYYCCSYAGSYTHYVFGGGTKLTVL
EC50 [2]: 0.000148 µM
Kd [9]: 5.52 µM
ELISA (Avg) [3]: 27.2
Kd [6]: 0.0096 µM
Kd [7]: 0.0096 µM
ELISA (Avg) [4]: 27.2

B5: 1-33 (antibody, V domains shown)
VH: EVQLLESGGGLVQPGGSLRLSCAASGFTFSSYAMIWVRQAPGKGLEWVSAISGSGGSTFYADSVKGRFTISRDNSKNTLYLQMNSLRAEDTAVYYCTRPPYGDYGDYWGQGTLVTVSS
VL: QSALTQPASVSGSPGQSITISCTGTSSDVGSYNLLSWYQQHPGKAPKLMIYEASKRPSGVSNRFSGSKSGNTASLTISGLQAEDEADYYCCSYAGSRTPVVFGGGTKLTVL
Kd [10]: 0.0081 µM
Kd [11]: 1740 µM
EC50 [2]: 0.0175 µM
ELISA (Avg) [3]: 17.6
ELISA (Avg) [4]: 17.6

B6: 1-32 (antibody, V domains shown)
VH: EVQLLESGGGLVQPGGSLRLSCAASGFTFSSYAMYWVRQAPGKGLEWVSAISGSGGSTFYADSVKGRFTISRDNSKNTLYLQMNSLRAEDTAVYYCTRPPYGDYGDYWGQGTLVTVSS
VL: QSALTQPASVSGSPGQSITISCTGTSSDVGGYNLVSWYQQHPGKAPKLMIYEGNKRPSGVSNRFSGSKSGNTASLTISGLQAEDEADYYCCSYAGSSTFPVVFGGGTKLTVL
Kd [10]: 0.0148 µM
ELISA (Avg) [3]: 17.9
IC50 [12]: 0.0322 µM
Kd [6]: 2.98 µM
ELISA (Avg) [4]: 17.9

B7: 1-42 (antibody, V domains shown)
VH: EVQLLESGGGLVQPGGSLRLSCAASGVTFSSYAMSWVRQAPGKGLEWVSAITGSGGSTYYADSVKGRFTISRDNSKNTLYLQMNSLRAEDTAVYYCAKHGSGTIFGVVIAKYYFDYWGQGTLVTVSS
VL: QSALTQPASVSGSPGQSITISCTGTSSDVGRYNLVSWYQQHPGKAPKLMIYEGGKRPSGVSNRFSGSKSGNTASLTISGLQAEDEADYYCCSYASSSTLVFGGGTKLTVL
Kd [5]: 0.364 µM
EC50 [2]: 0.00792 µM

B8: 1-17 (antibody, V domains shown)
VH: EVQLLESGGGLVQPGGSLRLSCAASGFTFSSYAMYWVRQAPGKGLEWVSAISGSAGSTYYADSVKGRFTISRDNSKNTLYLQMNSLRAEDTAVYYCARDTNDFWSGYSIFDPWGQGTLVTVSS
VL: QSALTQPASVSGSPGQSITISCTGTSSDIGSYNLVSWYQQHPGKAPKLMIYEGTKRPSGVSNRFSGSKSGNTASLTISGLQAEDEADYYCCSYAGSRTYVFGGGTKLTVL
Kd [10]: 6.65 µM
ELISA (Avg) [3]: 27.4
Kd [7]: 0.01 µM
ELISA (Avg) [4]: 27.4

B9: 1-29 (antibody, V domains shown)
VH: EVQLLESGGGLVQPGGSLRLSCAASGFTFSSYAMYWVRQAPGKGLEWVSAISGSAGSTYYADSVKGRFTISRDNSKNTLYLQMNSLRAEDTAVYYCARDTNDFWSGYSIFDPWGQGTLVTVSS
VL: QSALTQPASVSGSPGQSITISCTGTSSDIGSYNLVSWYQQHPGKAPKLMIYEGTKRPSGVSNRFSGSKSGNTASLTISGLQAEDEADYYCCSYAGSRTYVFGGGTKLTVL
Kd [8]: 0.0361 µM
ELISA (Avg) [3]: 23.8
Kd [7]: 0.0193 µM
ELISA (Avg) [4]: 23.8
